Measurements taken from article PMC9805127.

Substrate: O=C(O)C(=O)O
Assay: purified protein
Conditions: pH 4.0 (authors' preferred pH; also measured at pH 3 and 5), 100 mM buffer, air-saturated, 25 °C, 0.025 μM HvOXO, 0.125 μM PaDa-I as coupling enzyme

B1: HvOXO (Hordeum vulgare) (protein)
chain: SDPDPLQDFCVADLDGKAVSVNGHTCKPMSEAGDDFLFSSKLTKAGNTSTPNGSAVTELDVAEWPGTNTLGVSMNRVDFAPGGTNPPHIHPRATEIGMVMKGELLVGILGSLDSGNKLYSRVVRAGETFVIPRGLMHFQFNVGKTEAYMVVSFNSQNPGIVFVPLTLFGSDPPIPTPVLTKALRVEAGVVELLKSKFAGGS
Km: 730 ± 90 µM
kcat: 1.52 s⁻¹
kcat/Km: 2080 M⁻¹ s⁻¹
